Measured values: FireProtDB (doi:10.1038/9384)

B1: Acyl-CoA-binding protein, P07107 (parent)
chain: MSQAEFDKAAEEVKHLKTKPADEEMLFIYSHYKQATVGDINTERPGMLDFKGKAKWDAWNELKGTSKEDAMKAYIDKVEELKKKYGI

Variants of: B1
Conditions: Bos taurus; pH 5.3; 5 °C; GdnHCl; Fluorescence; Sodium acetate 0.02 M; structure 2ABD; whole UniProt chain shown

Row | Variant | ddG of mutation (higher = less stable) | denaturant m value | unfolding free energy
1 | P20A | 0.91 kcal/mol | 3.3 kcal/mol/M | 7.17 kcal/mol
2 | Y32N | 0.97 kcal/mol | 4.95 kcal/mol/M | 7.11 kcal/mol
3 | I75A | 1.34 kcal/mol | 3.91 kcal/mol/M | 6.74 kcal/mol
4 | V78A | 1.54 kcal/mol | 3.78 kcal/mol/M | 6.54 kcal/mol
5 | D22A | 0.4 kcal/mol | 3.32 kcal/mol/M | 7.68 kcal/mol
6 | L26A | 2.02 kcal/mol | 3.36 kcal/mol/M | 6.06 kcal/mol
7 | V13A | 1.5 kcal/mol | 3.47 kcal/mol/M | 6.58 kcal/mol
8 | Y74F | -0.03 kcal/mol | 3.31 kcal/mol/M | 8.11 kcal/mol
9 | Q34A | 3.03 kcal/mol | 4.49 kcal/mol/M | 5.05 kcal/mol
10 | I40A | 1.06 kcal/mol | 3.51 kcal/mol/M | 7.02 kcal/mol
11 | E68A | 0.8 kcal/mol | 3.45 kcal/mol/M | 7.28 kcal/mol
12 | L16A | 3.57 kcal/mol | 3.19 kcal/mol/M | 4.51 kcal/mol
13 | A10G | 2 kcal/mol | 3.4 kcal/mol/M | 6.08 kcal/mol
14 | F6A | 2.63 kcal/mol | 3.51 kcal/mol/M | 5.45 kcal/mol
15 | K53M | -0.48 kcal/mol | 3.71 kcal/mol/M | 8.56 kcal/mol
16 | K55A | 1.41 kcal/mol | 3.15 kcal/mol/M | 6.67 kcal/mol
17 | K55M | 0.22 kcal/mol | 3.33 kcal/mol/M | 7.86 kcal/mol
18 | T36A | 1.28 kcal/mol | 3.93 kcal/mol/M | 6.8 kcal/mol
19 | F27A | 1.53 kcal/mol | 3.8 kcal/mol/M | 6.55 kcal/mol
20 | L81A | 4.57 kcal/mol | 3.08 kcal/mol/M | 3.51 kcal/mol
21 | K33E | 1.47 kcal/mol | 3.42 kcal/mol/M | 6.61 kcal/mol
22 | K33A | 1.61 kcal/mol | 3.39 kcal/mol/M | 6.47 kcal/mol
23 | Y29F | 1.26 kcal/mol | 3.56 kcal/mol/M | 6.82 kcal/mol
24 | Y29N | 2.47 kcal/mol | 3.65 kcal/mol/M | 5.61 kcal/mol
25 | Y29A | 2.52 kcal/mol | 3.97 kcal/mol/M | 5.56 kcal/mol
